Assay results taken from patent publication US20230272056A1 (Merck Sharp & Dohme, published 2023).

biological target: T1, human LAP-TGFB1 Fc fusion (human); assay: BLI off-rate screen
T1 construct: also called human LAP-TGFβ1-Fc; human LAP-TGFβ-Fc isoform 1
Description: The Fab mutants including a positive control, 20E6 Fab, and a negative control Fab (Molecular Innovations, catalog HU-FAB-4510) were diluted to 200 nM in assay buffer and loaded to FAB2G sensors for 180 seconds followed by a one-hour incubation at room temperature in assay buffer to equilibrate the tips. The Fab loaded sensors were assessed for binding with 100 nM human LAP-TGFβ for 180 seconds followed by a 180 second dissociation phase in assay buffer on a ForteBio HTX (software version 9.0.0.66). Non-specific binding to the negative control Fab was subtracted and the binding sensorgrams were aligned to the start of the association phase on the X and Y axis. The Fab binding was fit with the 1:1 binding model, dissociation phase only, with local fitting using ForteBio Data Analysis 9.0 software.
Twenty-three variants containing a single tyrosine substitution in the light chain CDRs (at one of amino acid positions 24-31, 33, 34, 51-56, and 89-95 according to Kabat numbering scheme) and 21 similar heavy chain CDR variants (at amino acids positions 28-31, 33-35, 50-58 including 52a, 95, 96, 98, and 99 according to Kabat numbering scheme) were generated according to FIG. 1 and listed in Table 6 and their interactions with human LAP-TGFb1 were analyzed by ForteBio interferometry. […] In those sequences the VL is correct, even though these sequences are from the heavy chain. Thus, the VL_X ##Y refers to the position of the tyrosine mutation within the antibody, regardless of whether the sequence is a heavy or light chain.

T1 sequence (chain, as listed by the source limits assumed): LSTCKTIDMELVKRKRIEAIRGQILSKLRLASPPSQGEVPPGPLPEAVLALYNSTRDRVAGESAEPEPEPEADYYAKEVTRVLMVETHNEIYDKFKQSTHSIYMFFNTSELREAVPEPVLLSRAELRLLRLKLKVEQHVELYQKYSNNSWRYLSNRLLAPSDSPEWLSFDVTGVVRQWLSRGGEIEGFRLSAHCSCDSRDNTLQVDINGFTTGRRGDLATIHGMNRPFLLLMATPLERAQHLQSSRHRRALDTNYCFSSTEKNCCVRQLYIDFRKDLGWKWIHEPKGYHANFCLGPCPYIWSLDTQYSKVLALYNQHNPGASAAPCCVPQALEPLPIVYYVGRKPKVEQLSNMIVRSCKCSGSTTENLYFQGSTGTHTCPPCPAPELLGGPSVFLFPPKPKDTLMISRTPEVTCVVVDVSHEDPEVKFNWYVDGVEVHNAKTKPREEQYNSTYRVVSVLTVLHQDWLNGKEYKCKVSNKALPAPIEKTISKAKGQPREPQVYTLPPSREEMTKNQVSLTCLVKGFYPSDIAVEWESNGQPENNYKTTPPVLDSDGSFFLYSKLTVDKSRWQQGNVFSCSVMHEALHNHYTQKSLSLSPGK

Row | Binding response [nm] | binding result | Fold change [fold] | koff [s⁻¹] | Binder
1 | 0.042 | no binding (tested: 100 nM antigen) | – | – | VH D52Y (77BIT) (Fab, V domains shown) VH: EVQLVQSGAEVKKPGASVKVSCKASGYTFTSYWMHWVRQAPGQGLEWMGRIYPQSGGIKYAQKFQGRATLTVDTSTSTAYMELSRLRSDDTAVYYCARWDYGGYFDVWGQGTLVTVSS VL: DIQMTQSPSSLSASVGDRVTITCRASQDITNYLNWYQQKPGKAVKLLIYYTSRLHSGVPSRFSGSGSGTDYTLTISSLQPEDFATYFCQQGDTLPWTFGQGTKLEIKR
2 | 0.696 | – | 1.2 | 0.0361 | VH S31Y (70BIT) (Fab, V domains shown) VH: EVQLVQSGAEVKKPGASVKVSCKASGYTFTYYWMHWVRQAPGQGLEWMGRIDPQSGGIKYAQKFQGRATLTVDTSTSTAYMELSRLRSDDTAVYYCARWDYGGYFDVWGQGTLVTVSS VL: DIQMTQSPSSLSASVGDRVTITCRASQDITNYLNWYQQKPGKAVKLLIYYTSRLHSGVPSRFSGSGSGTDYTLTISSLQPEDFATYFCQQGDTLPWTFGQGTKLEIKR
3 | 0.555 | – | 1 | 0.043 | VH I57Y (83BIT) (Fab, V domains shown) VH: EVQLVQSGAEVKKPGASVKVSCKASGYTFTSYWMHWVRQAPGQGLEWMGRIDPQSGGYKYAQKFQGRATLTVDTSTSTAYMELSRLRSDDTAVYYCARWDYGGYFDVWGQGTLVTVSS VL: DIQMTQSPSSLSASVGDRVTITCRASQDITNYLNWYQQKPGKAVKLLIYYTSRLHSGVPSRFSGSGSGTDYTLTISSLQPEDFATYFCQQGDTLPWTFGQGTKLEIKR
4 | 0.542 | – | 1.2 | 0.036 | VH G55Y (81BIT) (Fab, V domains shown) VH: EVQLVQSGAEVKKPGASVKVSCKASGYTFTSYWMHWVRQAPGQGLEWMGRIDPQSYGIKYAQKFQGRATLTVDTSTSTAYMELSRLRSDDTAVYYCARWDYGGYFDVWGQGTLVTVSS VL: DIQMTQSPSSLSASVGDRVTITCRASQDITNYLNWYQQKPGKAVKLLIYYTSRLHSGVPSRFSGSGSGTDYTLTISSLQPEDFATYFCQQGDTLPWTFGQGTKLEIKR
5 | 0.625 | – | 1 | 0.0416 | VH Q53Y (79BIT) (Fab, V domains shown) VH: EVQLVQSGAEVKKPGASVKVSCKASGYTFTSYWMHWVRQAPGQGLEWMGRIDPYSGGIKYAQKFQGRATLTVDTSTSTAYMELSRLRSDDTAVYYCARWDYGGYFDVWGQGTLVTVSS VL: DIQMTQSPSSLSASVGDRVTITCRASQDITNYLNWYQQKPGKAVKLLIYYTSRLHSGVPSRFSGSGSGTDYTLTISSLQPEDFATYFCQQGDTLPWTFGQGTKLEIKR
6 | 0.588 | – | 1 | 0.0406 | VH S54Y (80BIT) (Fab, V domains shown) VH: EVQLVQSGAEVKKPGASVKVSCKASGYTFTSYWMHWVRQAPGQGLEWMGRIDPQYGGIKYAQKFQGRATLTVDTSTSTAYMELSRLRSDDTAVYYCARWDYGGYFDVWGQGTLVTVSS VL: DIQMTQSPSSLSASVGDRVTITCRASQDITNYLNWYQQKPGKAVKLLIYYTSRLHSGVPSRFSGSGSGTDYTLTISSLQPEDFATYFCQQGDTLPWTFGQGTKLEIKR
7 | 0.569 | – | 1 | 0.0436 | VH G56Y (82BIT) (Fab, V domains shown) VH: EVQLVQSGAEVKKPGASVKVSCKASGYTFTSYWMHWVRQAPGQGLEWMGRIDPQSGYIKYAQKFQGRATLTVDTSTSTAYMELSRLRSDDTAVYYCARWDYGGYFDVWGQGTLVTVSS VL: DIQMTQSPSSLSASVGDRVTITCRASQDITNYLNWYQQKPGKAVKLLIYYTSRLHSGVPSRFSGSGSGTDYTLTISSLQPEDFATYFCQQGDTLPWTFGQGTKLEIKR
8 | 0.055 | – | 0.9 | 0.0476 | VH G99Y (66BIT) (Fab, V domains shown) VH: EVQLVQSGAEVKKPGASVKVSCKASGYTFTSYWMHWVRQAPGQGLEWMGRIDPQSGGIKYAQKFQGRATLTVDTSTSTAYMELSRLRSDDTAVYYCARWDYGYYFDVWGQGTLVTVSS VL: DIQMTQSPSSLSASVGDRVTITCRASQDITNYLNWYQQKPGKAVKLLIYYTSRLHSGVPSRFSGSGSGTDYTLTISSLQPEDFATYFCQQGDTLPWTFGQGTKLEIKR
9 | 0.6 | – | 1.1 | 0.0379 | VH I51Y (76BIT) (Fab, V domains shown) VH: EVQLVQSGAEVKKPGASVKVSCKASGYTFTSYWMHWVRQAPGQGLEWMGRYDPQSGGIKYAQKFQGRATLTVDTSTSTAYMELSRLRSDDTAVYYCARWDYGGYFDVWGQGTLVTVSS VL: DIQMTQSPSSLSASVGDRVTITCRASQDITNYLNWYQQKPGKAVKLLIYYTSRLHSGVPSRFSGSGSGTDYTLTISSLQPEDFATYFCQQGDTLPWTFGQGTKLEIKR
10 | 0.566 | – | 0.9 | 0.0454 | VH P52aY (78BIT) (Fab, V domains shown) VH: EVQLVQSGAEVKKPGASVKVSCKASGYTFTSYWMHWVRQAPGQGLEWMGRIDYQSGGIKYAQKFQGRATLTVDTSTSTAYMELSRLRSDDTAVYYCARWDYGGYFDVWGQGTLVTVSS VL: DIQMTQSPSSLSASVGDRVTITCRASQDITNYLNWYQQKPGKAVKLLIYYTSRLHSGVPSRFSGSGSGTDYTLTISSLQPEDFATYFCQQGDTLPWTFGQGTKLEIKR
11 | 0.339 | – | 1.3 | 0.0327 | VH K58Y (84BIT) (Fab, V domains shown) VH: EVQLVQSGAEVKKPGASVKVSCKASGYTFTSYWMHWVRQAPGQGLEWMGRIDPQSGGIYYAQKFQGRATLTVDTSTSTAYMELSRLRSDDTAVYYCARWDYGGYFDVWGQGTLVTVSS VL: DIQMTQSPSSLSASVGDRVTITCRASQDITNYLNWYQQKPGKAVKLLIYYTSRLHSGVPSRFSGSGSGTDYTLTISSLQPEDFATYFCQQGDTLPWTFGQGTKLEIKR
12 | 0.597 | – | 1.3 | 0.0336 | VH F29Y (68BIT) (Fab, V domains shown) VH: EVQLVQSGAEVKKPGASVKVSCKASGYTYTSYWMHWVRQAPGQGLEWMGRIDPQSGGIKYAQKFQGRATLTVDTSTSTAYMELSRLRSDDTAVYYCARWDYGGYFDVWGQGTLVTVSS VL: DIQMTQSPSSLSASVGDRVTITCRASQDITNYLNWYQQKPGKAVKLLIYYTSRLHSGVPSRFSGSGSGTDYTLTISSLQPEDFATYFCQQGDTLPWTFGQGTKLEIKR
13 | 0.334 | – | 0.9 | 0.0471 | VH H35Y (73BIT) (Fab, V domains shown) VH: EVQLVQSGAEVKKPGASVKVSCKASGYTFTSYWMYWVRQAPGQGLEWMGRIDPQSGGIKYAQKFQGRATLTVDTSTSTAYMELSRLRSDDTAVYYCARWDYGGYFDVWGQGTLVTVSS VL: DIQMTQSPSSLSASVGDRVTITCRASQDITNYLNWYQQKPGKAVKLLIYYTSRLHSGVPSRFSGSGSGTDYTLTISSLQPEDFATYFCQQGDTLPWTFGQGTKLEIKR
14 | 0.623 | – | 1 | 0.0414 | VH M34Y (72BIT) (Fab, V domains shown) VH: EVQLVQSGAEVKKPGASVKVSCKASGYTFTSYWYHWVRQAPGQGLEWMGRIDPQSGGIKYAQKFQGRATLTVDTSTSTAYMELSRLRSDDTAVYYCARWDYGGYFDVWGQGTLVTVSS VL: DIQMTQSPSSLSASVGDRVTITCRASQDITNYLNWYQQKPGKAVKLLIYYTSRLHSGVPSRFSGSGSGTDYTLTISSLQPEDFATYFCQQGDTLPWTFGQGTKLEIKR
15 | 0.324 | – | 0.9 | 0.0445 | VH R50Y (75BIT) (Fab, V domains shown, also called VH RSOY (75BIT)) VH: EVQLVQSGAEVKKPGASVKVSCKASGYTFTSYWMHWVRQAPGQGLEWMGYIDPQSGGIKYAQKFQGRATLTVDTSTSTAYMELSRLRSDDTAVYYCARWDYGGYFDVWGQGTLVTVSS VL: DIQMTQSPSSLSASVGDRVTITCRASQDITNYLNWYQQKPGKAVKLLIYYTSRLHSGVPSRFSGSGSGTDYTLTISSLQPEDFATYFCQQGDTLPWTFGQGTKLEIKR
16 | 0.326 | – | 1.2 | 0.0343 | VH T28Y (67BIT) (Fab, V domains shown) VH: EVQLVQSGAEVKKPGASVKVSCKASGYYFTSYWMHWVRQAPGQGLEWMGRIDPQSGGIKYAQKFQGRATLTVDTSTSTAYMELSRLRSDDTAVYYCARWDYGGYFDVWGQGTLVTVSS VL: DIQMTQSPSSLSASVGDRVTITCRASQDITNYLNWYQQKPGKAVKLLIYYTSRLHSGVPSRFSGSGSGTDYTLTISSLQPEDFATYFCQQGDTLPWTFGQGTKLEIKR
17 | 0.102 | – | 0.6 | 0.0746 | VH D96Y (64BIT) (Fab, V domains shown) VH: EVQLVQSGAEVKKPGASVKVSCKASGYTFTSYWMHWVRQAPGQGLEWMGRIDPQSGGIKYAQKFQGRATLTVDTSTSTAYMELSRLRSDDTAVYYCARWYYGGYFDVWGQGTLVTVSS VL: DIQMTQSPSSLSASVGDRVTITCRASQDITNYLNWYQQKPGKAVKLLIYYTSRLHSGVPSRFSGSGSGTDYTLTISSLQPEDFATYFCQQGDTLPWTFGQGTKLEIKR
18 | 0.037 | no binding (tested: 100 nM antigen) | – | – | VH G98Y (65BIT) (Fab, V domains shown) VH: EVQLVQSGAEVKKPGASVKVSCKASGYTFTSYWMHWVRQAPGQGLEWMGRIDPQSGGIKYAQKFQGRATLTVDTSTSTAYMELSRLRSDDTAVYYCARWDYYGYFDVWGQGTLVTVSS VL: DIQMTQSPSSLSASVGDRVTITCRASQDITNYLNWYQQKPGKAVKLLIYYTSRLHSGVPSRFSGSGSGTDYTLTISSLQPEDFATYFCQQGDTLPWTFGQGTKLEIKR
